One block for each compound: values may come before it. Ends that are not written are not given here.
Columns and labels:
[1] = biological target: T1, cytochrome c (Homo sapiens, UniProt P99999); assay: ITC titration of ANP32A/B C-terminal peptides with reduced Cc; conditions: single binding-site model; 1 mM peptide onto 110 or 150 µM reduced Cc; 10 mM sodium phosphate pH 6.3; relative error 20%
T1 construct: obtained by immunizing male rabbits with full-length recombinant Cc; made in house; host or cells: E. coli BL21 (DE3)
Protocol: Isothermal titration calorimetry (ITC) experiments were performed using a Nano ITC Low Volume instrument (TA Instruments, USA). The reference cell was filled with distilled water. Titration experiments between reduced Cc and ANP32A or ANP32A1‐167 consisted of 17 injections of 2.91 µL of a 400 µM reduced Cc solution into the sample cell containing 50 µM ANP32A construct. Both Cc and ANP32A proteins were dialyzed against 10 mM sodium phosphate buffer pH 7.4. Assays performed at moderate ionic strength used the same experimental setup, but proteins were dialyzed against 20 mM sodium phosphate pH 7.4 with 50 mM NaCl. […] ANP32A, ANP32A230‐249 and ANP32B232‐251 titration data were analyzed using Origin 7.0 (OriginLab), employing a single‐ligand binding site model or a two‐ligand binding sites model. […] ANP32A1‐167 titration data was processed and analyzed using NanoAnalyze software (TA instruments).
ITC experiments were performed using a Nano ITC Low Volume instrument (TA Instruments, USA). […] ANP32A, ANP32A230-249 and ANP32B232-251 titration data was analyzed using Origin 7.0 (OriginLab), employing a single ligand binding site model or a two ligand binding sites model. […] ANP32A1-167 titration data were processed and analyzed using NanoAnalyze software (TA instruments).

[2] = biological target: T1, cytochrome c; assay: ITC titration of full-length ANP32A or ANP32A1-167 with reduced Cc; assay type: binding; conditions: for Kd: relative error 20%; for n (reaction stoichiometry): error 0.03; for ΔG: error 0.1 kcal/mol
Protocol: Isothermal titration calorimetry (ITC) experiments were performed using a Nano ITC Low Volume instrument (TA Instruments, USA). The reference cell was filled with distilled water. Titration experiments between reduced Cc and ANP32A or ANP32A1‐167 consisted of 17 injections of 2.91 µL of a 400 µM reduced Cc solution into the sample cell containing 50 µM ANP32A construct. Both Cc and ANP32A proteins were dialyzed against 10 mM sodium phosphate buffer pH 7.4. Assays performed at moderate ionic strength used the same experimental setup, but proteins were dialyzed against 20 mM sodium phosphate pH 7.4 with 50 mM NaCl. Assays using ANP32A230‐249 or ANP32B232‐251 peptides were performed by titrating 1 mM peptide solution onto 110 or 150 µM reduced Cc solutions, respectively, or onto 100 µM HuR106‐326 solution, following the same injection configuration as described for ANP32A proteins. Cc and HuR106‐326 solutions were dialyzed against 10 mM sodium phosphate buffer pH 6.3; peptides were dissolved in the same solution. The stirring speed was set to 200 rpm for HuR106‐326 titration experiments and to 300 rpm for Cc titration experiments, to ensure cell homogeneity. ANP32A, ANP32A230‐249 and ANP32B232‐251 titration data were analyzed using Origin 7.0 (OriginLab), employing a single‐ligand binding site model or a two‐ligand binding sites model. In the last case, no binding cooperativity was observed. ANP32A1‐167 titration data was processed and analyzed using NanoAnalyze software (TA instruments).
ITC experiments were performed using a Nano ITC Low Volume instrument (TA Instruments, USA). The reference cell was filled with distilled water. Titration experiments between reduced Cc and ANP32A or ANP32A1-167 consisted of 17 injections of 2.91 µL of a 400 µM reduced Cc solution into the sample cell containing 50 µM ANP32A construct. Both Cc and ANP32A proteins were dialyzed against 10 mM sodium phosphate buffer pH 7.4. Assays performed at moderate ionic strength used the same experimental setup, but proteins were dialyzed against 20 mM sodium phosphate pH 7.4 with 50 mM NaCl. Assays using ANP32A230-249 and ANP32B232-251 peptides were performed by titrating 1 mM peptide solution onto 110 or 150 µM reduced Cc solutions, respectively, or onto 100 µM HuR106-326 solution, following the same injection configuration as described for ANP32A proteins. Cc and HuR106-326 solutions were dialyzed against 10 mM sodium phosphate buffer pH 6.3; peptides were dissolved in the same solution. The stirring speed was set to 200 rpm for HuR106-326 titration experiments and to 300 rpm for Cc titration experiments, to ensure cell homogeneity. ANP32A, ANP32A230-249 and ANP32B232-251 titration data was analyzed using Origin 7.0 (OriginLab), employing a single ligand binding site model or a two ligand binding sites model. In the last case, no binding cooperativity was observed. ANP32A1-167 titration data were processed and analyzed using NanoAnalyze software (TA instruments).

[3] = test system: 15N-labeled Cc; assay: NMR titration (1H-15N HSQC) of 15N Cc with ANP32A or ANP32A1-167; assay type: binding; conditions: low ionic strength; 25 °C
Protocol: NMR titrations of 30 µM ^15N reduced Cc with ^14N ANP32A constructs were followed by 1D ^1H and 2D ^1H-^15N heteronuclear single quantum correlation (HSQC) spectra on a Bruker Avance-III 600 MHz equipped with a cryoprobe at 25 °C. ^15N-labelled reduced Cc (in 10 mM sodium phosphate buffer, pH 7.4) was titrated with increasing amounts of ^14N ANP32A dialyzed against the same buffer. Reduced ^15N Cc and ^14N ANP32A1-167 construct were titrated in 5 mM sodium phosphate buffer pH 6.4. To maintain the redox state of Cc and to adjust the lock signal on the NMR spectrometer, 0.1 mM of sodium ascorbate and 10% of D2O were added, respectively. Data were acquired and processed using TopSpin NMR 3.5pl7 software (Bruker).
Line broadening and chemical-shift perturbation analysis were performed using the Sparky 3 NMR assignment tool (T.D. Goddard and D.G. Kneller, University of California San Francisco, USA). Assignment of ANP32A230-249 and ANP32B232-251 peptides was performed using NMRFAM-SPARKY software distribution (National Magnetic Resonance Facility at Madison) and further imported to CCPNMR ^[1], whereby distance restraints were calculated using its built-in module.

[4] = test system: recombinant Cc; assay: Cc pulldown assay with HEK293T extracts; assay type: binding; conditions: HEK293T extracts expressing ANP32A-c-myc, Western blot
Protocol: Pulldown assays were performed as previously described.^[ [31] ^] Briefly, transfected HEK293T cells were resuspended in a lysis buffer containing 10 mM Tricine‐NaOH pH 8.5, 1 mM PMSF, and cOmplete protease inhibitors (Roche). Afterward, cells were lysed by sonication (10 s, 10% amplitude, on ice), and the resulting debris was discarded after 15 min of centrifugation at 13300 rpm and 4 °C. More details on the procedure were given in the Supporting Information Appendix.
Pulldown assays were performed as previously described ^[6^]. Briefly, transfected HEK293T cells were resuspended in a lysis buffer containing 10 mM Tricine-NaOH pH 8.5, 1 mM PMSF and cOmplete™ protease inhibitors (Roche). Afterwards, cells were lysed by sonication (10 s, 10% amplitude, on ice), and the resulting debris was discarded after 15 min of centrifugation at 13,300 rpm and 4 °C.
Cc pulldown assays were carried out by incubating cell extracts with 100 µg of recombinant Cc for 16 h at 4 °C in batch. A carboxymethylcellulose matrix (Whatman) was added, and the mixture was incubated for 30 min at 4 °C in batch. To remove possible non-specific binding, the matrix was washed 3 times with 1 mL of washing buffer containing 10 mM Tricine-NaOH pH 8.5, 20 mM NaCl, 1 mM PMSF and cOmplete™ protease inhibitors. […]

[5] = test system: histone H3; assay: Coimmunoprecipitation of c-myc-ANP32A/B with histone H3; assay type: binding; conditions: anti-c-myc, Western blot; representative of three experiments
Protocol: HEK293T cells were transfected with a plasmid encoding ANP32A/b-c-myc. 24 h after transfection, cells were collected for lysates preparation in buffer containing 20 mM Tris-HCl pH 7.5, 100 mM NaCl, 0.5% NP40, 0.1 mM PMSF and cOmplete™. Cells were lysed by sonication and precleared by incubation with sepharose-A beads (GE Healthcare, GE17-5280-01) for 1 h at 4 °C. The lysates were then incubated with anti-c-myc (see Pull-down assays) over night at 4 °C and subsequently with sepharose-A beads (GE Healthcare, GE17-5280-01) for 1 h at room temperature with rotation. Following 6 washes with PBS, the samples were resuspended in SDS loading buffer and analyzed by western blotting.

[6] = test system: Heltog cells (HeLa cells constitutively expressing Cc-GFP); assay: Subcellular localization of Cc-GFP and ANP32A in Heltog cells after camptothecin; assay type: cell-based; conditions: 20 µM CPT, 1 or 4 h, confocal microscopy
Protocol: After 1 h or 4 h of CPT treatment, nuclei were stained by incubating cells with 1 µg mL^−1 Hoechst (Sigma‐Aldrich) for 10 min at 37 °C. Cells were then rinsed in pre‐warmed PBS at 37 °C to remove media traces, fixed by immersing the coverslips in a 4% formaldehyde (Sigma‐Aldrich) solution prepared in PBS for 10 min at room temperature, and then washed in pre‐warmed PBS at 37 °C. Cells were dried by incubating the coverslips in absolute ethanol for 2 min. Afterward, coverslips were mounted into glass slides using N‐propyl gallate (Sigma‐Aldrich), to preserve the fluorescence, and sealed with nail polish. Images were obtained in a Zeiss LSM 7 DUO confocal microscope using a 63× oil objective. For calcium phosphate transfection, 2.5 × 10^6 HEK293T cells were cultured in 150 mm diameter plates. After 72 h of growth, media was refreshed prior to transfection. For subcellular localization assays; 50,000 Heltog cells were grown over coverslips placed in 15.6 mm well plates for 24 h before transfection. DNA damage was then induced by replacing media for one containing 20 µM of camptothecin (CPT) and incubating cells for 1 h or 4 h. […] Afterwards, coverslips were mounted into glass slides using N-propyl gallate (Sigma-Aldrich), to preserve the fluorescence, and sealed with nail polish. […]

[7] = low ionic strength 25 mM, first listed of two independent sites, 10 mM sodium phosphate pH 7.4
[8] = low ionic strength 25 mM, second listed of two independent sites, 10 mM sodium phosphate pH 7.4
[9] = moderate ionic strength 100 mM, single site, 20 mM sodium phosphate pH 7.4, 50 mM NaCl
[10] = moderate ionic strength 100 mM, single site, 20 mM sodium phosphate pH 7.4, 50 mM NaCl, error 0.4 kcal/mol

T1 sequence (P99999 whole entry): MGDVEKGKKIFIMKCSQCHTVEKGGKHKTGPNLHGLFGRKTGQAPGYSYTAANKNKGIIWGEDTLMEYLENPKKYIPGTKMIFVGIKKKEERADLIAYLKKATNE

Kd [1]: 190 µM
Compound: EEERGQKRKRETEDEGEDDD [ANP32A230‐249 P241T]

n (reaction stoichiometry) [2, 9]: 0.60
ΔG [2, 9]: -6.1 kcal/mol
ΔH [2, 10]: 1.5 kcal/mol
–TΔS [2, 10]: -7.6 kcal/mol
Kd [2, 9]: 32 µM
binding to Cc by ITC, in words ([2]; moderate ionic strength (100 mM)): one of the two binding sites was lost
Compound: ANP32A: full-length recombinant acidic leucine‐rich nuclear phosphoprotein 32 A, histone chaperone
Kd ([2]; low ionic strength 25 mM, first listed of two independent sites, 10 mM sodium phosphate pH 7.4, 400 µM reduced Cc into 50 µM ANP32A): 3.6 µM
n (reaction stoichiometry) [2, 7]: 0.65
ΔG [2, 7]: -7.4 kcal/mol
ΔH ([2]; low ionic strength 25 mM, first listed of two independent sites, 10 mM sodium phosphate pH 7.4, error 0.4 kcal/mol): 0.4 kcal/mol
Kd ([2]; low ionic strength 25 mM, second listed of two independent sites, 10 mM sodium phosphate pH 7.4, 400 µM reduced Cc into 50 µM ANP32A): 34 µM
n (reaction stoichiometry) [2, 8]: 0.65
ΔG [2, 8]: -6.1 kcal/mol
binding to Cc by ITC, in words ([2]; low ionic strength (25 mM)): two molecules of Cc bind the ANP32A LCAR at independent binding sites, with no observed cooperativity
chemical-shift perturbations of Cc amide signals, in words [3]: specific chemical‐shift perturbations and substantial broadening
Cc pulldown result, in words [4]: Cc interacts with ANP32A
coimmunoprecipitation of histone H3, in words [5]: H3 binds both ANP32 proteins in a similar manner

Kd [1]: 190 µM
Compound: EEERGEKRKRETEDEGEDDD [ANP32A230‐249 Q235E/P241T]

Compound: CC[C@@]1(O)C(=O)OCc2c1cc1n(c2=O)Cc2cc3ccccc3nc2-1 [camptothecin]
Cc-GFP localization after camptothecin, in words [6]: Cc‐GFP translocated into the cell nucleus
